Data on five molecules can be found in article PMC12767347 (bioRxiv, 2025).

Values joined by “and” are separate entries in the source; they are usually repeats but may differ in a detail not shown here. Equal values may be shown once. Read-outs that look alike come from different tables or passages of the source.

The target in data set [1] is T1, untagged PNPase (catalytically active) (M. smegmatis, UniProt A0QVQ5 1-763).
T1 sequence: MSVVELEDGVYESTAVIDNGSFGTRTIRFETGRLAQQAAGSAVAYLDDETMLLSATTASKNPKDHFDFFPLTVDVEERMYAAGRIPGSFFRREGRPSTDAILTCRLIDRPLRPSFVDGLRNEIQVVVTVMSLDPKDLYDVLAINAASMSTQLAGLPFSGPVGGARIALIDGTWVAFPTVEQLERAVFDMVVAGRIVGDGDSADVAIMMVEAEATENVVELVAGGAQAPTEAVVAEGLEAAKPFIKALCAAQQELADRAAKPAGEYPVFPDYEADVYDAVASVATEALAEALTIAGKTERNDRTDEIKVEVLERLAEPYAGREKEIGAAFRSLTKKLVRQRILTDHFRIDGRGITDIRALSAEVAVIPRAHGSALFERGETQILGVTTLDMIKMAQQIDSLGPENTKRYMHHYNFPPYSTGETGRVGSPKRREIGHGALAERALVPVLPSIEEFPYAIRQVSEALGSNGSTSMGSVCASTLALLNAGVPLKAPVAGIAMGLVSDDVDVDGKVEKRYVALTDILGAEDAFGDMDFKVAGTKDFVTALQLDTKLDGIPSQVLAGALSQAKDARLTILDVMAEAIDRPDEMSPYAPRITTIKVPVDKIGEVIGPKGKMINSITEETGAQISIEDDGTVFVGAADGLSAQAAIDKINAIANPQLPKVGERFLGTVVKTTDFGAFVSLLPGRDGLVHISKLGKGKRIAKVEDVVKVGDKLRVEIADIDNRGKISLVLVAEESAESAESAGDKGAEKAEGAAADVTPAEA
As to the kind of experiment: co-IP.

The target of data set [2] is T2, HA-tagged PNPase (catalytically active) (M. smegmatis, UniProt A0QVQ5 1-763).
T2 sequence: T1 sequence
As to the kind of experiment: co-IP.

The data set “SEC” concerns the molecule itself. As to the kind of experiment: SEC. For orientation: SEC sorts molecules by how far they enter the pores of the column.
Data set [3] deals with T2, HA-tagged PNPase (catalytically active). As to the kind of experiment: co-IP. The source holds these as a separate data set.

The term stoichiometry N denotes the number of molecules, sites or subunits per partner or assembly.

B1: HA-tagged RNase J (catalytically active) (enzyme)
chain: MSAELAPPPPLAPGGLRVTALGGISEIGRNMTVFEHLGRLLIVDCGVLFPGHDEPGVDLILPDLRHIEDRLDEIEALVVTHAHEDHIGAIPFLLKLRPDIPVVGSKFTIALVREKCREHRLKPKFVEVAERQSSQHGVFECEYFAVNHSIPGCLAVAIHTGAGTVLHTGDIKLDQLPLDGRPTDLPGMSRLGDAGVDLFLCDSTNSEHPGVSPSESEVGPTLHRLIRGAEGRVIVACFASNVDRVQQIIDAAVALGRRVSFVGRSMVRNMGIARELGYLKVDDSDILDIAAAEMMPPDRVVLITTGTQGEPMAALSRMSRGEHRSITLTSGDLIILSSSLIPGNEEAVYGVIDSLSKIGARVVTNAQARVHVSGHAYAGELLFLYNGVRPRNVMPVHGTWRHLRANAALAASTGVPPENIVLAENGVSVDLVAGRASISGAVTVGKMFVDGLITGDVGDATLGERLILSSGFVSITVVVHRGTGRPAGPAHLISRGFSEDPKALEPVAQKVERELEALAADNVTDPTRIAQAVRRTVGKWVGETYRRQPMIVPTVIEI
Consider B1, for which, in data set [1], the binding result was “binds”.

B2: untagged RNase J (catalytically active) (enzyme)
chain: B1 chain
In the case of B2, the binding result in data set [2] is on record as “binds”.

B3: catalytically dead full-length RNase E (D694R, D738R), N-terminal 6x-His and FLAG tagged (enzyme)
chain: MAEDAHTEDLSTQTPQQEGLPERLRVHSLARVLGTTSRRVLDALAEFDGRQRSAHSTVDKADAERVRAALTESPAAETPPEEAPAAETPVADLVVVQAEQVEVVTVSEAGPAEPAEPAEPEAPAAEAEAEAETEVADEAETPEPTFRGAVLVGDEPESRLILEHANIPPARETQTERPDYLPLFVAPQPVSFEPAVVDDEDEDDDTETGAESDFDSGADSDSDDDQADRPRRRRRGRRGRGRGRGEQNDDATSDADTDSTEDQTDGDEQESGEDSDDSGDEDSTTTEGGTRRRRRRRRRKSGSGDSDDAVSPDDPPNTVVHERAPRTERSDKSDDSEIQGISGSTRLEAKRQRRRDGRDAGRRRPPILSEAEFLARREAVERTMIVRDKVRTEPPHEGARYTQIAVLEDGVVVEHFVTSAASASLVGNIYLGIVQNVLPSMEAAFVDIGRGRNGVLYAGEVNWEAAGLGGQNRKIEQALKPGDYVVVQVSKDPVGHKGARLTTQVSLAGRYLVYVPGASSTGISRKLPDTERQRLKEILREVVPSDAGVIIRTASEGVKEEDIRSDVERLQKRWSEIEAKAAEVTEKKAGAAVALYEEPDVLVKVIRDLFNEDFSSLIVSGDEAWNTINSYVEAVAPDLMPRLTKYEPAGPDAPDVFAVHRIDEQLAKAMDRKVWLPSGGTLVIDRTEAMTVVRVNTGKFTGSGGNLEQTVTRNNLEAAEEIVRQLRLRDIGGIVVIRFIDMVLESNRDLVLRRLTEALARDRTRHQVSEVTSLGLVQLTRKRLGTGLVEAFSTACTHCGGRGIVLHGDPIDSASSNGGRKSDSSGGGGSGGGRRGKRGKKGAARTEEVHVAKVPDHTPGEHPMFKAMAAANGKHEGDEDHEDHEDHETAEDTTAAEVRDDTRDEHDADERAHVVTAAVGAAGDEDLDDSDEDSDLDSDEESDDESDEDEIELDDDEDELDEDIEVIGDSDDSDDSDDSDEDDDSDDSDDDSDEDEDSDSDEDEEPVREVYEPPVTAPRARVRRRAAARPAGPPSHD
In the case of B3, in the data set “SEC”, the “stoichiometry N” value was 4.

B4: catalytically dead RNase E N-terminal IDR deletion (retaining AA 330-1037), N-terminal 6x-His and FLAG tagged (domain or fragment)
chain: SDKSDDSEIQGISGSTRLEAKRQRRRDGRDAGRRRPPILSEAEFLARREAVERTMIVRDKVRTEPPHEGARYTQIAVLEDGVVVEHFVTSAASASLVGNIYLGIVQNVLPSMEAAFVDIGRGRNGVLYAGEVNWEAAGLGGQNRKIEQALKPGDYVVVQVSKDPVGHKGARLTTQVSLAGRYLVYVPGASSTGISRKLPDTERQRLKEILREVVPSDAGVIIRTASEGVKEEDIRSDVERLQKRWSEIEAKAAEVTEKKAGAAVALYEEPDVLVKVIRDLFNEDFSSLIVSGDEAWNTINSYVEAVAPDLMPRLTKYEPAGPDAPDVFAVHRIDEQLAKAMDRKVWLPSGGTLVIDRTEAMTVVRVNTGKFTGSGGNLEQTVTRNNLEAAEEIVRQLRLRDIGGIVVIRFIDMVLESNRDLVLRRLTEALARDRTRHQVSEVTSLGLVQLTRKRLGTGLVEAFSTACTHCGGRGIVLHGDPIDSASSNGGRKSDSSGGGGSGGGRRGKRGKKGAARTEEVHVAKVPDHTPGEHPMFKAMAAANGKHEGDEDHEDHEDHETAEDTTAAEVRDDTRDEHDADERAHVVTAAVGAAGDEDLDDSDEDSDLDSDEESDDESDEDEIELDDDEDELDEDIEVIGDSDDSDDSDDSDEDDDSDDSDDDSDEDEDSDSDEDEEPVREVYEPPVTAPRARVRRRAAARPAGPPSHD
On to B4, for which, in data set [3], the binding result is listed as “binds”. Further, the “stoichiometry N” value in the data set “SEC” is 2 and 4.

B5: catalytically dead RNase E C-terminal IDR deletion (retaining AA 2-823), N-terminal 6x-His and FLAG tagged (domain or fragment)
chain: AEDAHTEDLSTQTPQQEGLPERLRVHSLARVLGTTSRRVLDALAEFDGRQRSAHSTVDKADAERVRAALTESPAAETPPEEAPAAETPVADLVVVQAEQVEVVTVSEAGPAEPAEPAEPEAPAAEAEAEAETEVADEAETPEPTFRGAVLVGDEPESRLILEHANIPPARETQTERPDYLPLFVAPQPVSFEPAVVDDEDEDDDTETGAESDFDSGADSDSDDDQADRPRRRRRGRRGRGRGRGEQNDDATSDADTDSTEDQTDGDEQESGEDSDDSGDEDSTTTEGGTRRRRRRRRRKSGSGDSDDAVSPDDPPNTVVHERAPRTERSDKSDDSEIQGISGSTRLEAKRQRRRDGRDAGRRRPPILSEAEFLARREAVERTMIVRDKVRTEPPHEGARYTQIAVLEDGVVVEHFVTSAASASLVGNIYLGIVQNVLPSMEAAFVDIGRGRNGVLYAGEVNWEAAGLGGQNRKIEQALKPGDYVVVQVSKDPVGHKGARLTTQVSLAGRYLVYVPGASSTGISRKLPDTERQRLKEILREVVPSDAGVIIRTASEGVKEEDIRSDVERLQKRWSEIEAKAAEVTEKKAGAAVALYEEPDVLVKVIRDLFNEDFSSLIVSGDEAWNTINSYVEAVAPDLMPRLTKYEPAGPDAPDVFAVHRIDEQLAKAMDRKVWLPSGGTLVIDRTEAMTVVRVNTGKFTGSGGNLEQTVTRNNLEAAEEIVRQLRLRDIGGIVVIRFIDMVLESNRDLVLRRLTEALARDRTRHQVSEVTSLGLVQLTRKRLGTGLVEAFSTACTHCGGRGIVLHGDPIDSASSNGGRKSD
Turning to B5, the “stoichiometry N” value in the data set “SEC” is 2 and 4.
